Reference: paper PMC5131300, “Discovery and structural characterisation of new fold type IV-transaminases exemplify the diversity of this enzyme fold” (Scientific Reports, 2016)

Biological target: CpuTA1, fold type IV transaminase from Curtobacterium pusillum (Curtobacterium pusillum)
Assay: crystal structure; CpuTA1 12 mg/mL with 5 mM PLP, co-crystallised with 10 mM 3-amino benzoic acid, 2.4 M sodium malonate pH 7.0, micro-seeding, 289 K; two chains in the asymmetric unit; interface analysed with PDBePISA

stoichiometry N: 2
Substance: CpuTA1, fold type IV transaminase from Curtobacterium pusillum (enzyme)
